Laboratory results: PMC5412023
pKd: −log10 of the molar value.

Legend:
GST-TET2 CR W1291R = GST-TET2 CR W1291R (UniProt Q6N021); assay: MST; microscale thermophoresis, Monolith NT.115, analysed by PRISM; biotinylated histone H3 peptides with GST-TET2 CR wild type or W1291R
[1] = molecular target: GST-TET2 CR (cysteine-rich domain of TET2, residues 1129-1322, fused to glutathione S-transferase), wild type (UniProt Q6N021); assay: as above
[2] = molecular target: GST-TET2 CR (cysteine-rich domain of TET2, residues 1129-1322, fused to glutathione S-transferase), wild type (UniProt Q6N021); assay: MST; microscale thermophoresis, Monolith NT.115, analysed by PRISM; mononucleosome binding to the wild-type CR domain

pKd (GST-TET2 CR W1291R)	pKd [1]	pKd [2]	Substance
4.96	6.16	–	histone H3_(21-44) K36me1 peptide (from UniProt P68431 22-45)
4.56	6.13	–	histone H3_(21-44) K36me2 peptide (from UniProt P68431 22-45)
6.02	4.68	–	histone H3_(21-44) unmodified peptide (from UniProt P68431 22-45)
–	–	6.41	mononucleosome (complex)
